Results taken from US20160000891A1.

Biological target: PF-4 in cynomolgus plasma (cynomolgus)
Assay: aligned sandwich ELISA, cynomolgus plasma

## monoclonal anti-HPF4 antibody (Abcam cat. no.: ab49735)
  AUC Ratio (vs anti-HPF4): 1
  anti-HPF4 AUC mean: 2.79
